Source: US20200392183A1 (Memorial Sloan Kettering, published 2020)
Blank lines part the entries; values can stand above or below the binder they belong to.

Target: T1, HLA-A0201 molecule on T2 cells (TAP-, HLA-A0201+) (human)
T1 construct: Empty, thermolabile HLA-A0201 on T2 cells; also called HLA-A2; HLA-A2 molecule
Experiment: T2 stabilization assay, surface HLA-A2 by flow cytometry (BB7.2)
Protocol: T2 cells (TAP-, HLA-A0201+) were incubated overnight at 37° C. at 1×10⁶ cells/ml in FCS-free RPMI medium supplemented with 10 ug/ml human beta-2m (Sigma, St Louis, Mo., USA) in the absence (negative control) or presence peptides at various final concentrations (50, 10 and 2 ug/ml). Brefeldin A (Sigma) at 5 ug/ml was added to the cultures for the final two hrs of incubation. Then T2 cells were washed and stained with anti-HLA-A2.1 (BB7.2) mAb conjugated to FITC for 30 min at 4° C. and followed by washing with staining buffer (PBS plus 1% FBS and 0.02% azide). The expression of the HLA-A2 on the cell surface was measured by flow cytometry on a FACScalibur (Becton Dickinson) and analyzed with FlowJo 9.6.3 software.

B1: native WT1 peptide NQMNLGATL (SEQ ID NO:5) (peptide)
peptide: NQMNLGATL
notes: Synthetic 9-mer from Genemed Synthesis; also called native peptide; A24-native peptide
binding result: no binding (tested: 50, 10 and 2 ug/ml tested)

Binder: NYMNLGATL (also called A24-het-2; Het24-2) [heteroclitic WT1 analogue peptide NYMNLGATL (SEQ ID NO:7)]
binding result: no binding (tested: 50, 10 and 2 ug/ml tested)

binding result: binds
Binder: NLMNLGATL (also called A24-het-1; Het24-1) [heteroclitic WT1 analogue peptide NLMNLGATL (SEQ ID NO:6)]
